Source: the DeepSol protein solubility set

Test: soluble on expression in E. coli; label from the status in PepcDB or PDB records

Row | Sequence | soluble on expression in E. coli
1 | MRKTWLSLLLLFILALSACGNAADDQKNNSASPKEKKPETITYQSENGPVEVPADPKRVVVLSTFAGHVLALDVPIVGVDSWSKMSPLFQEKLKDAEVVTDEDIEKIMALKPDLIIGLSNTKKVDKLSKIAPTVTFTYGKVDYLTQFLEIGKLLNKEKEAKAWIDDFKQRAQQAGEEIRAKIGENATVTVAENFDKQLYVFGNNWARGTEILYQEMKLKMPKAVEEQALKPGYYAVSLEALPQFVGDYLILSKNGDGDTSFMETNTFKNIPAVKNGHMFVADAKAFYFNDPITLDYQLDFFKKHFLGQ | not soluble
2 | MRKVETTKAPQAIGPYSQGIIVNNMFYSSGQIPLTPEGELVKGDIQAQTHQVFQNLKAVLEAAGASLDTVVKTTVFLKNMDDFAAMNEVYSQYFPNHKPARSCVEVARLPKDVLVEIEVVALVP | soluble
3 | MRLASMGEEDSTPGRRSKAYSRQGADVRPMKGGHGINLVGTLMAATERGANIVEGVVDFRPTDLRGSLRRGREANLIVFVVDTSGSMAARSRVRAVTGTITSMLNDAYQRRDKVAVIAVNGNKPTLVLNPTNSVEQAQQKLKDMPMGGRTPLAEGLLMAKDLMARELRKEPGRRAILMVMTDGQDTSDAGEAGIATAAETVVKSRLSGNVVIDCEGRLKVRKERAGVLAEMLGGVCVRLRDLNSEHIKMVINA | not soluble
4 | MRLCDRDIEAWLDEGRLSINPRPPVERINGATVDVRLGNKFRTFRGHTAAFIDLSGPKDEVSAALDRVMSDEIVLDEGEAFYLHPGELALAVTLESVTLPADLVGWLDGRSSLARLGLMVHVTAHRIDPGWSGCIVLAFYNSGKLPLALRPGMLIGALSFEPLSGPAVRPYNRREDAKYRNQQGAVASRIDKD | soluble
5 | MRLCGLLIFLSYIVYVDNAVTANFISDPRSMFPKMVRTKNAFHFLQYFMGTFRRMFRNKTEMIEHFNYYDDQVKGTDCHIQEELDFARFKSYFDRYTRTHYNPEIRIIFAIMTKDSSHMTVEFHVTSQSWFGFEDHFHMIIRAVNDENVGWGVRYLSMAFNC | not soluble
6 | MRLDHLRLQNFRCYEDAHFDFQPGFNLVVGVNGSGKTSLLLGVAECLIPYGNAMGQGQEILSKEDVRFVIDRHEGRSRFERKFPVFIRADGDIFDLPNWRAVRLLEPWEGGVDPSSLSHLSAVLARNNAGEQIDFPVLAFYRANRRWSSARISAEFAAQQRTSRFDGYANWFDAVADLRDFESWLIARTLERLQDRLDSTPTVEREDELEWVNRAIRLAIPDAHDLRYDLRLQSLLVDMGEGNAVPFHELSDGQRSLIALIADIARRMCVLNPHIGKDVLANTGGIVIIDELDIHLHPAWQRNIAPTLKKAFPKVQFIATSHSPQVIGSLQPGEVILLKNGDSSHPRATYGLDSSTILEEVMGVPQREPEIEVLLDELFSTLENNELEKARLQLDALKKKAPDLPEFAGAEALLKRKELIGRLEHHHHHH | soluble
7 | MRLFHELLGPLELPDRFSRIVSLAPNLTDALFALGLGERLVGRSAFCHRPAPVLALPVVASYTKTRLELLRSLKPDLVLLSTGVQREQALRLKEEGFPVYAVPLPTSPYGILENLSTLGHLLDLEERAVALAHELSGRYAALRGRFDLRVYFEMDLGGPITVGRGSYIAQALLHMGLKPIFLDVPQAYFAPDLEEVRRRAPDLFLYEPKPWGKNPLEKARALARERGWDFPVAATDGDELAHYGPMFFGFLEKLARRVEETLGQA | soluble
8 | MRLFKRYTPSMIAKHISRLFKGRIYIYGVGRFEFDNGKLILPEKAEQRHFRAVKEINQEIMKLRCAYALEHHHHHH | not soluble
9 | MRLISKPVLCNYYVTYRCNATCGFCDIWEKPSPYVTPEAVEQNMRDLKKLGVKVIDFTGGEPLLHREMDTLLRIAKKYGMITTLTTNALLYPKWAERLKGLIDMLHFSLDSPDKAEHDTLRGVACFDFVLESIEKAKALGERPDIIFTVFNHNIHLIKRMYEEICLPNNLILILNPSFEYNQVEVGTGLQKKELDILSYWAKQKNIYINEAFIQLRLDGGNHTADPVCKAASSTLVISPENKLVLPCYHLGTDSFQIENNLFDLYHSKEVRAIIAQEGKLDACEGCTINCYMQPSFAVEINKYWFKAMPSTLKYSREKGTWKQLFR | not soluble
10 | MRLKLTHINHISHKIANDFIHSKLLELKAPRELLCELIEGILEKSVKKENAIDEQARELLEENTDEIEFMRMDERQLFWMIKRQIAQKEGFHLFWEERCNDLSHQILNKILDEDLIMFSVSENLIRNLIYKSIDTYSKAYESIENEVHEKIKHYKRKLPVGSDEYELVFERLYEEELRRKGFL | not soluble
11 | MRLLILGGTGDAAELSAKVATIPGIEAIASLAGRTREPSLPSGNVRVGGFGGAAGLADYLRQMQVDVLIDATHPFAAQISENAALAADEVEIPRLMLIRPPWVKVAGDRWIEVDTTSAAAAILKNQAKRVFLTVGRQELSAFAHLHDIWFLMRMIDPPAADALVPPGVILCDRGPFTLPQERDILIQHNIDTLVSKNSGGDATYAKIIAARELGVQVVMVNRPVVPACEQVTDADAAVAWLLEK | not soluble
12 | MRLLLFRQRNFRNLALEAYRPPPGLSALVGANAQGKTSLLLGIHLALGGEVPLGLADLVRFGEEEAWLHAEVETELGAYRLEHRLGPGGREVLLNGKRVSLRTLWELPGSVLVSPLDLEAVLGPKEERRAYLDRLIARFSRRYAALLSAYEKALRQRNALLKAGGEGLSAWDRELARYGDEIVALRRRFLRRFAPILREVHAALAAKEAGLRLEETAGEGVLRALEASRAEERERGQTLVGPHRDDLVFLLEGRPAHRFASRGEAKTLALALRLAEHRLLGEHHGEPPLLLVDEWGEELDEARRRAVLAYAQALPQAILAGLEAPPGVPVCSVVRGVVLCPGA | soluble
13 | MRLLTCDCTFMGQKHSGSVSVEKKNQENDGPPTYEIVFGWSQSFENLMKHRAGQKYFAEFLKGEYSDENILFWQACEELKREKNAEKIEEKARIIYEDFISILSPKEVSLDSRVREIVNTNMGRPSASTFDEAQNQIYTLMQRDSYPRFLASNIYKTVMGTFGIKEEAV | not soluble
14 | MRLSFRTLQRRNALGDAPRHRSAQRRAVKTGRRASRTACDAERRTIVERAWHDSLEHHHHHH | not soluble
15 | MRLVIARCSVDYIGRLEAHLPMADRLLMVKADGSVSIHADDRAYKPLNWMTPPCTLTETTHEESETGESIPLWIVENKKGEQLRITIEALHSDMYYDLGEDPGLQKDGVEAHLQELLAEHIETLGDGYSLVRREYPTPIGPVDILCRDDKGGSVAVEIKRRGGIDGVEQLSRYLELLNRDDLLAPVAGVFAAQHIKPQARTLAEDRGIRCVTLDYDSLRGIESTELRLF | not soluble
16 | MRNITNFLKTFLLWELLKGLKVTGKHFFTRKVTVQYPDEKTPISNRFRGLHALRRYENGEERCIACKLCEVVCPALAITINSTEREDGTRRTSSYEMDLFKCIFCGYCEESCPVDSIVETNILEYHFEERGENIMTKAKLLAIGDKYEAQIAADRLQDKDFR | not soluble
17 | MRNTDRKRAQGVSRLDRRDSRMRRVGTYGGRKLIEYDQERWNILAEKRERAKEVMESLLSFGIESVVYGSVARGDVNEKSDVDIFIPEVIPSYKVEVALDGFEVLEKRIVQATPNYAIKGEFVLSDNTTVSFPLVRMREREMDFYRFGGCVDYRGLMEKRRVPGVDKRLVLIIPTGKGHREIPLTDIHPSSVARMLGVSIDIVTERIRVLTRRREVGRTGIFLCETIPSTDCFEQALKEIASRNPAVRRRLD | not soluble
